FireProtDB (doi:10.1111/j.1432-1033.1996.00516.x)

B1: Guanyl-specific ribonuclease T1, P00651 (parent)
chain: MMYSKLLTLTTLLLPTALALPSLVERACDYTCGSNCYSSSDVSTAQAAGYQLHEDGETVGSNSYPHKYNNYEGFDFSVSSPYYEWPILSSGDVYSGGSPGADRVVFNENNQLAGVITHTGASGNNFVECT

Variants of: B1
Conditions: Aspergillus oryzae (strain ATCC 42149 / RIB 40); pH 5; 10 °C; GdnHCl; Fluorescence; Sodium acetate 0.1 M; reversible: yes; structure 1RN1; whole UniProt chain shown

Variant | ddG of mutation (higher = less stable) [kcal/mol] | denaturant m value [kcal/mol/M] | denaturant midpoint (higher = more stable) [M]
MMYSKLLTLTTLLLPTALALPSLVERACDYTCGSNCYSSSDVSTAQAAGYQLHEDGETVGSNSYPHKYNNYEGFDFSVSSPYYEWPILSSGDVYSGGSVGADRVVFNENNQLAGVITHTGASGNNFVECT | -1.53 | 3.01 | 3.43

Same assay, conditions: Aspergillus oryzae (strain ATCC 42149 / RIB 40); pH 8; 10 °C; GdnHCl; Fluorescence; PIPES 0.1 M; reversible: yes; structure 1RN1; whole UniProt chain shown

Variant | ddG of mutation (higher = less stable) [kcal/mol] | denaturant m value [kcal/mol/M] | denaturant midpoint (higher = more stable) [M]
MMYSKLLTLTTLLLPTALALPSLVERACDYTCGSNCYSSSDVSTAQAAGYQLHEDGETVGSNSYPHKYNNYEGFDFSVSSPYYEWPILSSGDVYSGGSVGADRVVFNENNQLAGVITHTGASGNNFVECT | -2.44 | 3.18 | 2.44

Same assay, conditions: Aspergillus oryzae (strain ATCC 42149 / RIB 40); pH 8; 25 °C; GdnHCl; Fluorescence; PIPES 0.1 M; reversible: yes; structure 1RN1; whole UniProt chain shown

Variant | ddG of mutation (higher = less stable) [kcal/mol] | denaturant m value [kcal/mol/M] | denaturant midpoint (higher = more stable) [M]
MMYSKLLTLTTLLLPTALALPSLVERACDYTCGSNCYSSSDVSTAQAAGYQLHEDGETVGSNSYPHKYNNYEGFDFSVSSPYYEWPILSSGDVYSGGSVGADRVVFNENNQLAGVITHTGASGNNFVECT | -2.01 | 2.7 | 1.66
